Reference: patent publication US9127040B2, “Regulation of sodium channels by PLUNC proteins” (The University of North Carolina at Chapel Hill, priority 2011, dated 2015)

Target: T1, α and γ ENaC (Rattus norvegicus, UniProt P37089+P37090+P37091)
T1 construct: expressed in transfected cells; host or cells: Xenopus oocytes (cRNA injection; with or without V5-SPLUNC1 and CAP2)
T1 sequence (P37089 1-698): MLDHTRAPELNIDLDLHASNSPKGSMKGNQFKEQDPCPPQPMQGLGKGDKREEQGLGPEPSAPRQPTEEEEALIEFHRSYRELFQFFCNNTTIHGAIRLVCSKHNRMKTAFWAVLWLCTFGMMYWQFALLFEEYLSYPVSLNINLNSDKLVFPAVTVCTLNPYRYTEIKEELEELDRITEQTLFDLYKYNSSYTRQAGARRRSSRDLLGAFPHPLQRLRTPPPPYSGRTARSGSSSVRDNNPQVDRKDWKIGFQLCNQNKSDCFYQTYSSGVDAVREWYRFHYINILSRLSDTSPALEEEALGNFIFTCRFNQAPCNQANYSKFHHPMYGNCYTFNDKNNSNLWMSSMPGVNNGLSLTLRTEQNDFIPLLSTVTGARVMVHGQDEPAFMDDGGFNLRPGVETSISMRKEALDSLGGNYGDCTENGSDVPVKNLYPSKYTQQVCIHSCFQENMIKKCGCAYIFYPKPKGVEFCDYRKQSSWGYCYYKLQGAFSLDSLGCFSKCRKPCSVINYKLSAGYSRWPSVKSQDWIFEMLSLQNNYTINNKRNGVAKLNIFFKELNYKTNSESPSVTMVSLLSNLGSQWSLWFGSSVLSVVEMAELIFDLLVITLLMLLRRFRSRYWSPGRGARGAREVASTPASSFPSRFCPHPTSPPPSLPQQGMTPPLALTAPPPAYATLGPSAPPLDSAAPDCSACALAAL
T1 sequence (P37090 1-638): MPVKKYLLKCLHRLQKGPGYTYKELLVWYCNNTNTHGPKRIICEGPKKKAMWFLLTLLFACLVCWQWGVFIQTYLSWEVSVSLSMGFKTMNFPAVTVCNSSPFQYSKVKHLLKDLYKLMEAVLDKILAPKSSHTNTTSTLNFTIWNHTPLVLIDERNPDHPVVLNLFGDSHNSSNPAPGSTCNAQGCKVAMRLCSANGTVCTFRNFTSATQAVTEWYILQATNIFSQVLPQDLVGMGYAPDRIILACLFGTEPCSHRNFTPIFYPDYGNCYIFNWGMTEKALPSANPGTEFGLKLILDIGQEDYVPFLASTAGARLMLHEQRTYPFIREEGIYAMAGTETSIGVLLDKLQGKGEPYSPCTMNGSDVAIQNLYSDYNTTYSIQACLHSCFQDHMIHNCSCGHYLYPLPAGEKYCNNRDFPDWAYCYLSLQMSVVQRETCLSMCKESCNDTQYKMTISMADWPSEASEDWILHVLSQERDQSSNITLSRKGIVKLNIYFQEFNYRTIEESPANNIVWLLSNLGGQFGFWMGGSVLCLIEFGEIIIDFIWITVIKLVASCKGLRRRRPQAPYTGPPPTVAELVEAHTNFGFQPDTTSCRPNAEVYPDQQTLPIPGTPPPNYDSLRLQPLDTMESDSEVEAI
T1 sequence (P37091 1-650): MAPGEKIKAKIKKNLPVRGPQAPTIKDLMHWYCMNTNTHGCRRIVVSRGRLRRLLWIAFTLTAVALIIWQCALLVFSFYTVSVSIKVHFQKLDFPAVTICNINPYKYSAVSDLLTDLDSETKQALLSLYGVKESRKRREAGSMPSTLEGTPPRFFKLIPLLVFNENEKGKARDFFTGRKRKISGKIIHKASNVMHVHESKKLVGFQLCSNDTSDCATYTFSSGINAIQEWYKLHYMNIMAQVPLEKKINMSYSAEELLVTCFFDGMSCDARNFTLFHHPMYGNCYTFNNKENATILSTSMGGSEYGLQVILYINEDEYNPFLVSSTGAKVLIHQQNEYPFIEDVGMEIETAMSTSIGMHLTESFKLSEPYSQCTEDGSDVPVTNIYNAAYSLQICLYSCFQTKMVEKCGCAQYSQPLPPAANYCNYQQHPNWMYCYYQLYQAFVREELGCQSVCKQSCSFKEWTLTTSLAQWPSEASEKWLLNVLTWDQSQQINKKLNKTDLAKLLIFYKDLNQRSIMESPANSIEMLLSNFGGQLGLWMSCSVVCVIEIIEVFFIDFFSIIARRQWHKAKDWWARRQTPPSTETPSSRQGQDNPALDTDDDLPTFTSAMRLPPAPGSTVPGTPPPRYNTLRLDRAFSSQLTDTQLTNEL
Test: Western blot of ENaC cleavage by CAP2 in Xenopus oocytes
Type: cell-based
Settings: αβγENaC, CAP2 and SPLUNC1 co-expressed in oocytes
Protocol: Xenopus oocytes were injected with either HA-N-Terminus or V5-C-Terminus (HA-NT/V5-CT) tagged subunits in combination with wild type (WT) untagged rat αβγENaC subunits (0.3 ng cRNA each) with or without V5-tagged SPLUNC1 and CAP2 (1 ng cRNA each). After 24 h, 40 eggs per experimental condition were lysed with buffer containing (in mM): 20 Tris, 50 NaCl, 50 NaF, 10 β-glycerophosphate, 5 Na4P2O7 pyrophosphate, 1 EDTA, pH 7.5 and protease inhibitors (complete, Roche), aprotinin (Sigma). Cell lysates were prepared by passing the eggs through a 27G1/2 needle twice and by centrifugation at 3,600 rpm for 10 minutes at 4° C. […]
Proteolytic cleavage of α and γ subunits is required for ENaC activation (Mueller et al., J. Biol. Chem. 282:33475 (2007); Adebamiro et al., J. Gen. Physiol. 130:611 (2007)) and since CAP2 is highly expressed in human bronchial epithelial cultures (Tarran et al., J. Gen. Physiol. 127:591 (2006)), we tested whether SPLUNC1 could alter α and γ ENaC cleavage by CAP2. Due to the relative scarcity of purified rSPLUNC1, we elected to co-express SPLUNC1 and ENaC rather than use rSPLUNC1 for subsequent oocyte studies since SPLUNC1 is secreted at sufficient quantities from oocytes to inhibit ENaC (FIG. 5). When αβγENaC and CAP2 were co-expressed in oocytes, both full-length ENaC subunits and cleaved α and γ fragments were detected with a V5 antibody (FIG. 7A, 7B). […]

B1: SPLUNC1: human SPLUNC1 (SEQ ID NO:1), 256 amino acid secreted PLUNC family protein; rSPLUNC1 is the purified V5/6His-tagged recombinant form (protein, listed as Homo sapiens)
chain: MFQTGGLIVFYGLLAQTMAQFGGLPVPLDQTLPLNVNPALPLSPTGLAGSLTNALSNGLLSGGLLGILENLPLLDILKPGGGTSGGLLGGLLGKVTSVIPGLNNIIDIKVTDPQLLELGLVQSPDGHRLYVTIPLGIKLQVNTPLVGASLLRLAVKLDITAEILAVRDKQERIHLVLGDCTHSPGSLQISLLDGLGPLPIQGLLDSLTGILNKVLPELVQGNVCPLVNEVLRGLDITLVHDIVNMLIHGLQFVIKV
modifications: V5/6His tag in recombinant form
notes: rSPLUNC1 is the purified V5/6His-tagged recombinant form
Q: Which “α and γ ENaC cleavage by CAP2” value does the source give for B1 here?
A: only full-length α and γ ENaC subunits could be observed
